Patent publication US20240376190A1 (Chugai, published 2024)

How the values were obtained:
[1] = target: T1, FLAG-tagged human latent TGF-beta 1 (human, UniProt P01137 34-390); assay: SPR (BIACORE 8K), antibody captured on anti-human Fc, antigen as analyte, pH 7.4
T1 construct: Co-expressed with human furin, purified on anti-FLAG resin and by gel filtration; also called human latent TGF-beta 1 (SLC); hSLC
Experimental: (§1) A mouse anti-human Fc (GE Healthcare) was immobilized onto all flow cells of a CM5 sensor chip using amine coupling kit (GE Healthcare). Antibodies were captured onto the anti-human Fc sensor surfaces to around 20RU capture level, then recombinant latent TGF-beta 1 of human, cyno, and mouse was injected over the flow cell. All antibodies and analytes were prepared in ACES pH 7.4 containing 20 mM ACES, 150 mM NaCl, 0.05% Tween 20, 0.005% NaN₃. Sensor surface was regenerated each cycle with 3M MgCl₂.

[2] = target: T2, FLAG-tagged mouse latent TGF-beta 1 (mouse, UniProt P04202 34-390); assay: as above
T2 construct: Co-expressed with human furin; also called mouse latent TGF-beta 1 (SLC); mSLC
Experimental: as §1

[3] = target: T1, FLAG-tagged human latent TGF-beta 1; assay: SPR (BIACORE 8K), antibody captured on anti-human Fc, antigen as analyte, pH 5.8
[4] = target: T2, FLAG-tagged mouse latent TGF-beta 1; assay: as above
[5] = target: T1, FLAG-tagged human latent TGF-beta 1; assay: SPR (BIACORE), antibody captured on anti-human Fc, antigen as analyte, pH 7.4
[6] = target: T2, FLAG-tagged mouse latent TGF-beta 1; assay: as above
[7] = target: T1, FLAG-tagged human latent TGF-beta 1; assay: SPR (BIACORE 8K), ratio calculated from FIGS. 5 and 6
[8] = target: T2, FLAG-tagged mouse latent TGF-beta 1; assay: as above
Cyno latent TGF-beta 1 [9] = target: T3, Cyno latent TGF-beta 1 (Cys at the 30th position substituted with Ser (C33S mutation)); assay: as above
T3 construct: The first reading lists it only inside the group m5; also called FLAG-tagged cynomolgus monkey latent TGF-beta 1; monkey latent TGF-beta 1 (SLC)

Cyno latent TGF-beta 1 [10] = target: T3, Cyno latent TGF-beta 1; assay: SPR (BIACORE 8K), antibody captured on anti-human Fc, antigen as analyte, pH 7.4
Experimental: as §1

Cyno latent TGF-beta 1 [11] = target: T3, Cyno latent TGF-beta 1; assay: SPR (BIACORE 8K), antibody captured on anti-human Fc, antigen as analyte, pH 5.8

T3 sequence (latent TGF-beta 1 (LAP and mature TGF-beta 1), as listed by the source): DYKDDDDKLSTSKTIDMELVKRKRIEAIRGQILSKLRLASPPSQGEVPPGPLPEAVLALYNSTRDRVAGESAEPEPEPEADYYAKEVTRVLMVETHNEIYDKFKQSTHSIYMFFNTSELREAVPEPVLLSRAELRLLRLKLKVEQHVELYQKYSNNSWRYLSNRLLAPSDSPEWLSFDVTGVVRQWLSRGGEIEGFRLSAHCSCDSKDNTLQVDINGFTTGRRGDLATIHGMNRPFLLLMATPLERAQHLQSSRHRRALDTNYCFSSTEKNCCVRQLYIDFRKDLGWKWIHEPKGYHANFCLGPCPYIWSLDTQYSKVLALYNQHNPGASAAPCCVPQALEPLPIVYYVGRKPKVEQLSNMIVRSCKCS

| Binder | Kd [1] | Kd [2] | Kd [3] | Kd [4] | Kd [5] | koff [5] | kon [5] | Kd [6] | koff [6] | kon [6] | also measured |
| --- | --- | --- | --- | --- | --- | --- | --- | --- | --- | --- | --- |
| hT0947AE34-SG191 (antibody, human IgG1, V domains shown, Human IgG1, SG191; also called hT0497AE34-SG191) VH: QVQLVESGGGVVQPGRSLRLSCAASGFHFSSEAMNWIRQPPGKGLEWIGYIYTSGTTYRANWARGRFTISRDNSKNTLYLQMNSLRAEDTAVYYCARGWHIFDHHYWVMHAWGQGTLVTVSS VL: DIQMTQSPSSLSASVGDRVTITCQASQSISTYLAWYQQKPGQPPKLLIYAASTLEYGVPSRFSGSGSGTDFTLTISSLQPEDFATYYCQSYSDGDSVIFGQGTKVEIKR | 2.29 nM | 3.67 nM | 309 nM | 346 nM | – | – | – | – | – | – | – |
| hT0947AE23-SG181 (antibody, human IgG1, kappa, V domains shown, Human IgG1; Heavy chain = VH + CH, light chain = VL + CL) VH: QVQLVESGGGVVQPGRSLRLSCAASGFHFSREAMNWIRQPPGKGLEWIGYIYTSGTTYRANWARGRFTISRDNSKNTLYLQMNSLRAEDTAVYYCARGTHLFGHHYWVMHSWGQGTLVTVSS VL: DIQMTQSPSSLSASVGDRVTITCQASQSISTYLAWYQQKPGQPPKLLIYAASTLEYGVPSRFSGSGSGTDFTLTISSLQPEDFATYYCQSYSDGDSVVFGQGTKVEIKR | – | – | – | – | 3.25 nM | 0.00108 s⁻¹ | 333000 M⁻¹ s⁻¹ | 4.19 nM | 0.00187 s⁻¹ | 445000 M⁻¹ s⁻¹ | – |
| hT0947AE20-SG191 (antibody, human IgG1, Human IgG1, SG191; also called hT0497AE20-SG191) heavy: QVQLVESGGGVVQPGRSLRLSCAASGFLFSREAMNWIRQPPGKGLEWIGYIYTSGTTYRANWARGRFTISRDNSKNTLYLQMNSLRAEDTAVYYCARGWHIFGHQYWVMHFWGQGTLVTVSSASTKGPSVFPLAPSSKSTSGGTAALGCLVKDYFPEPVTVSWNSGALTSGVHTFPAVLQSSGLYSLSSVVTVPSSSLGTQTYICNVNHKPSNTKVDKRVEPKSCDKTHTCPPCPAPELRRGPSVFLFPPKPKDTLMISRTPEVTCVVVDVSHEDPEVKFNWYVDGVEVHNAKTKPREEQYNSTYRVVSVLTVLHQDWLNGKEYKCKVSNKALPAPIEKTISKAKGQPREPQVYTLPPSREEMTKNQVSLTCLVKGFYPSDIAVEWESNGQPENNYKTTPPVLDSDGSFFLYSKLTVDKSRWQQGNVFSCSVLHEALHAHYTRKELSLSP light: DIQMTQSPSSLSASVGDRVTITCQASQSISTYEAWYQQKPGQPPKLLIYAASTLESGVPSRFSGSGSGTDFTLTISSLQPEDFATYYCQSYSDGDSVIFGQGTKVEIKRTVAAPSVFIFPPSDEQLKSGTASVVCLLNNFYPREAKVQWKVDNALQSGNSQESVTEQDSKDSTYSLSSTLTLSKADYEKHKVYACEVTHQGLSSPVTKSFNRGEC | 3.84 nM | 5.12 nM | 395 nM | 669 nM | – | – | – | – | – | – | KD ratio pH5.8/pH7.4 [7]: 103; koff ratio pH5.8/pH7.4 [7]: 51.7; KD ratio pH5.8/pH7.4 [8]: 131; koff ratio pH5.8/pH7.4 [8]: 44.2; KD ratio pH5.8/pH7.4 (Cyno latent TGF-beta 1 [9]): 113; koff ratio pH5.8/pH7.4 (Cyno latent TGF-beta 1 [9]): 55.3; koff [1]: 0.00104 s⁻¹; kon [1]: 271000 M⁻¹ s⁻¹; koff [2]: 0.00242 s⁻¹; kon [2]: 472000 M⁻¹ s⁻¹; Kd (Cyno latent TGF-beta 1 [10]): 3.78 nM; koff (Cyno latent TGF-beta 1 [10]): 0.001 s⁻¹; kon (Cyno latent TGF-beta 1 [10]): 266000 M⁻¹ s⁻¹; koff [3]: 0.0538 s⁻¹; kon [3]: 136000 M⁻¹ s⁻¹; koff [4]: 0.107 s⁻¹; kon [4]: 160000 M⁻¹ s⁻¹; Kd (Cyno latent TGF-beta 1 [11]): 427 nM; koff (Cyno latent TGF-beta 1 [11]): 0.0553 s⁻¹; kon (Cyno latent TGF-beta 1 [11]): 129000 M⁻¹ s⁻¹ |
| hT0947AE20-SG181 (antibody, human IgG1, kappa, Human IgG1) heavy: not shown light: DIQMTQSPSSLSASVGDRVTITCQASQSISTYEAWYQQKPGQPPKLLIYAASTLESGVPSRFSGSGSGTDFTLTISSLQPEDFATYYCQSYSDGDSVIFGQGTKVEIKRTVAAPSVFIFPPSDEQLKSGTASVVCLLNNFYPREAKVQWKVDNALQSGNSQESVTEQDSKDSTYSLSSTLTLSKADYEKHKVYACEVTHQGLSSPVTKSFNRGEC | – | – | – | – | 2.95 nM | 0.00111 s⁻¹ | 377000 M⁻¹ s⁻¹ | 4.39 nM | 0.00294 s⁻¹ | 670000 M⁻¹ s⁻¹ | – |
| hT0947AE07-SG181 (antibody, human IgG1, kappa, Human IgG1; Heavy chain = VH + CH, light chain = VL + CL; also called non-pH dependent anti-human latent TGF-beta 1 antibody) heavy: not shown light: DIQMTQSPSSLSASVGDRVTITCQASQSISTYLAWYQQKPGQPPKLLIYAASTLESGVPSRFSGSGSGTDFTLTISSLQPEDFATYYCQSYSDGDSVGFGQGTKVEIKRTVAAPSVFIFPPSDEQLKSGTASVVCLLNNFYPREAKVQWKVDNALQSGNSQESVTEQDSKDSTYSLSSTLTLSKADYEKHKVYACEVTHQGLSSPVTKSFNRGEC | – | – | – | – | 1.02 nM | – | – | 1.04 nM | – | – | – |
| hT0947AE22-SG181 (antibody, human IgG1, kappa, V domains shown, Human IgG1; Heavy chain = VH + CH, light chain = VL + CL) VH: QVQLVESGGGVVQPGRSLRLSCAASGFHFSREAMNWIRQPPGKGLEWIGYIYTSGTTYRANWARGRFTISRDNSKNTLYLQMNSLRAEDTAVYYCARGWHIFGHHYWVMHFWGQGTLVTVSS VL: DIQMTQSPSSLSASVGDRVTITCQASQSISTYLAWYQQKPGQPPKLLIYAASTLESGVPSRFSGSGSGTDFTLTISSLQPEDFATYYCQSYSDGDSVIFGQGTKVEIKR | – | – | – | – | 3.6 nM | 0.00124 s⁻¹ | 344000 M⁻¹ s⁻¹ | 5.76 nM | 0.00376 s⁻¹ | 653000 M⁻¹ s⁻¹ | – |
| T0947H0053H0156-SG181/T0947L001L0049-SK1 (antibody, human IgG1, kappa, V domains shown, Human IgG1; also called the pH dependent antibody; parent pH-dependent anti human latent TGF-beta 1 antibody) VH: QVQLVESGGGVVQPGRSLRLSCAASGFTFSSEAMNWIRQPPGKGLEWIGYIYTSGTTYRANWARGRFTISRDNSKNTLYLQMNSLRAEDTAVYYCARGTHIYDHYYWVHHLWGQGTLVTVSS VL: DIQMTQSPSSLSASVGDRVTITCQASQSISTYLAWYQQKPGQPPKLLIYAASTLESGVPSRFSGSGSGTDFTLTISSLQPEDFATYYCQSYSDGDSVGFGQGTKVEIKR | – | – | – | – | – | – | – | 16.6 nM | – | – | – |

The next lines start with results.

| Kd [1] | Kd [2] | Kd [3] | Kd [4] | Kd [5] | koff [5] | kon [5] | Kd [6] | koff [6] | kon [6] | Binder | also measured |
| --- | --- | --- | --- | --- | --- | --- | --- | --- | --- | --- | --- |
| – | – | – | – | 3.33 nM | 0.0012 s⁻¹ | 361000 M⁻¹ s⁻¹ | 5.34 nM | 0.00864 s⁻¹ | 1.62e+06 M⁻¹ s⁻¹ | hT0947AE26-SG181 (antibody, human IgG1, kappa, V domains shown, Human IgG1; Heavy chain = VH + CH, light chain = VL + CL) VH: QVQLVESGGGVVQPGRSLRLSCAASGFHFSNEAMNWIRQPPGKGLEWIGYIYTSGTTYRSNWARGRFTISRDNSKNTLYLQMNSLRAEDTAVYYCARGWHIFGHQYWVMHFWGQGTLVTVSS VL: DIQMTQSPSSLSASVGDRVTITCQASQSISTYEAWYQQKPGQPPKLLIYAASTLESGVPSRFSGSGSGTDFTLTISSLQPEDFATYYCQSYSDGDSVKFGQGTKVEIKR | – |
| – | – | – | – | 3.88 nM | 0.00152 s⁻¹ | 391000 M⁻¹ s⁻¹ | 4.48 nM | 0.0353 s⁻¹ | 7.89e+06 M⁻¹ s⁻¹ | hT0947AE25-SG181 (antibody, human IgG1, kappa, V domains shown, Human IgG1; Heavy chain = VH + CH, light chain = VL + CL) VH: QVQLVESGGGVVQPGRSLRLSCAASGFHFSNEAMNWIRQPPGKGLEWIGYIYTSGTTYRSNWARGRFTISRDNSKNTLYLQMNSLRAEDTAVYYCARGWHIFGHQYWVMHFWGQGTLVTVSS VL: DIQMTQSPSSLSASVGDRVTITCQASQSISTYEAWYQQKPGQPPKLLIYAASTLESGVPSRFSGSGSGTDFTLTISSLQPEDFATYYCQSYSDGDSVGFGQGTKVEIKR | – |
| 1.32 nM | 3.61 nM | 222 nM | 1570 nM | – | – | – | – | – | – | hT0947AE37-SG191 (antibody, human IgG1, V domains shown, Human IgG1, SG191; also called hT0497AE37-SG191) VH: QVQLVESGGGVVQPGRSLRLSCAASGFHFSSEAMNWIRQPPGKGLEWIGYIYVSGTTYRADWARGRFTISRDNSKNTLYLQMNSLRAEDTAVYYCARGWHIFGHHYWVMHAWGQGTLVTVSS VL: DIQMTQSPSSLSASVGDRVTITCQASESISTYLAWYQQKPGQPPKLLIYAASTLESGVPSRFSGSGSGTDFTLTISSLQPEDFATYYCQSYSDGDSVIFGQGTKVEIKR | – |
| 3.93 nM | 5.43 nM | 482 nM | 803 nM | – | – | – | – | – | – | hT0947AE27-SG191 (antibody, human IgG1, V domains shown, Human IgG1, SG191; also called hT0497AE27-SG191) VH: QVQLVESGGGVVQPGRSLRLSCAASGFHFSNEAMNWIRQPPGKGLEWIGYIYTTGTTYRANWARGRFTISRDNSKNTLYLQMNSLRAEDTAVYYCARGWHIFGHHYWVMHFWGQGTLVTVSS VL: DIQMTQSPSSLSASVGDRVTITCQASQRISTYVAWYQQKPGQPPKLLIYAASTLESGVPSRFSGSGSGTDFTLTISSLQPEDFATYYCQSYSDGDSVIFGQGTKVEIKR | – |
| – | – | – | – | 2.55 nM | 0.001 s⁻¹ | 393000 M⁻¹ s⁻¹ | 7.03 nM | 0.00441 s⁻¹ | 627000 M⁻¹ s⁻¹ | hT0947AE24-SG181 (antibody, human IgG1, kappa, V domains shown, Human IgG1; Heavy chain = VH + CH, light chain = VL + CL) VH: QVQLVESGGGVVQPGRSLRLSCAASGFHFSSEAMNWIRQPPGKGLEWIGYIYTSGTTYRANWARGRFTISRDNSKNTLYLQMNSLRAEDTAVYYCARGWHIFGHHYWVMHFWGQGTLVTVSS VL: DIQMTQSPSSLSASVGDRVTITCQASQSISTYLAWYQQKPGQPPKLLIYAASTLEWGVPSRFSGSGSGTDFTLTISSLQPEDFATYYCQSYSDGDSVGFGQGTKVEIKR | – |
